Test results as given in EP0672136B1, “POLYPEPTIDES, DERIVED FROM ENDONEXIN 2, HAVING HEPATITIS B VIRUS RECEPTOR ACTIVITY AND THEIR USE IN DIAGNOSTIC AND PHARMACEUTICAL COMPOSITIONS” (priority 1992, dated 1994).

Target: T1, major HBsAg (Hepatitis B virus genotype A2 subtype adw2, UniProt P03141)
T1 construct: purchased Merck Sharp and Dohme Laboratories (gift of Dr. W. J. Miller, not bought); host or cells: yeast
Test: Binding of radiolabeled endonexin II to immobilized major HBsAg in the presence of endonexin II peptide fractions (F-peak inhibition assay)
Set-up: species or system HBV
Settings: fractions of acid-hydrolysed human liver endonexin-II; triplicate; Figure 23A
Experimental: Purified endonexin-II was treated according to the method as described in example 3. (Hydrolysis in 3% formic acid at 112°C for 4h). After treatment with formic acid, the protein digest was separated by reversed phase HPLC on a Vydac C-4 column (2.1 x 250 mm, Hesperia, CA, USA) as described in example 3. Peptide peaks were registered on a chart recorder and collected manually.
Binding experiments were performed according to the method as described in example 1 and 5. However, binding of radiolabeled endonexin-II to immobilized major HBsAg was carried out in the presence of individual peak fractions of unlabeled digested human liver endonexin-II (see above). The experiment was performed in triplicate. […] Therefore, these peptide was considered as one of the important major HBsAg-binding epitopes on endonexin-II. By sequencing an identical peak fraction in a parallel experiment, peptides corresponding to peaks F and S were determined as amino acids 266 to 280 (peak F, DHTLIRVMVSRSEID) and amino acids 92-138 (peak S): […]) of human endonexin II (numbering according to Kaplan et al., 1988).

T1 sequence (P03141 175-400): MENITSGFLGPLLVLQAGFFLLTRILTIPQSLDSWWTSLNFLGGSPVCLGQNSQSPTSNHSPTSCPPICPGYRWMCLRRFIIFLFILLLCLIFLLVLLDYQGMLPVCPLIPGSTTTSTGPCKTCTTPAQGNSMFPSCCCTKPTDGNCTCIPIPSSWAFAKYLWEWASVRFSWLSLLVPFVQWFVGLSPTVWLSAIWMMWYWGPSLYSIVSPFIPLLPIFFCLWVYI

DEEKFITIFGTRSVSHLRKVFDKYMTISGFQIEETI [peak L, region encompassing amino acids 190 to 225 of human endonexin]
inhibition of binding of radiolabeled endonexin-II to major HBsAg by HPLC peak fraction: slightly lower binding inhibition capacity
